Test results as given in patent US20220119490A1 (Genentech, published 2022).

Key:
[1] = target: T1, PTPRO expressed on cells (human, UniProt Q16827 30-1216); experiment: cell surface interaction assay: query ECD tetramerised with fluorescent streptavidin on transfected cells, immunofluorescence
T1 construct: whole, on cells
T1 sequence (looked up): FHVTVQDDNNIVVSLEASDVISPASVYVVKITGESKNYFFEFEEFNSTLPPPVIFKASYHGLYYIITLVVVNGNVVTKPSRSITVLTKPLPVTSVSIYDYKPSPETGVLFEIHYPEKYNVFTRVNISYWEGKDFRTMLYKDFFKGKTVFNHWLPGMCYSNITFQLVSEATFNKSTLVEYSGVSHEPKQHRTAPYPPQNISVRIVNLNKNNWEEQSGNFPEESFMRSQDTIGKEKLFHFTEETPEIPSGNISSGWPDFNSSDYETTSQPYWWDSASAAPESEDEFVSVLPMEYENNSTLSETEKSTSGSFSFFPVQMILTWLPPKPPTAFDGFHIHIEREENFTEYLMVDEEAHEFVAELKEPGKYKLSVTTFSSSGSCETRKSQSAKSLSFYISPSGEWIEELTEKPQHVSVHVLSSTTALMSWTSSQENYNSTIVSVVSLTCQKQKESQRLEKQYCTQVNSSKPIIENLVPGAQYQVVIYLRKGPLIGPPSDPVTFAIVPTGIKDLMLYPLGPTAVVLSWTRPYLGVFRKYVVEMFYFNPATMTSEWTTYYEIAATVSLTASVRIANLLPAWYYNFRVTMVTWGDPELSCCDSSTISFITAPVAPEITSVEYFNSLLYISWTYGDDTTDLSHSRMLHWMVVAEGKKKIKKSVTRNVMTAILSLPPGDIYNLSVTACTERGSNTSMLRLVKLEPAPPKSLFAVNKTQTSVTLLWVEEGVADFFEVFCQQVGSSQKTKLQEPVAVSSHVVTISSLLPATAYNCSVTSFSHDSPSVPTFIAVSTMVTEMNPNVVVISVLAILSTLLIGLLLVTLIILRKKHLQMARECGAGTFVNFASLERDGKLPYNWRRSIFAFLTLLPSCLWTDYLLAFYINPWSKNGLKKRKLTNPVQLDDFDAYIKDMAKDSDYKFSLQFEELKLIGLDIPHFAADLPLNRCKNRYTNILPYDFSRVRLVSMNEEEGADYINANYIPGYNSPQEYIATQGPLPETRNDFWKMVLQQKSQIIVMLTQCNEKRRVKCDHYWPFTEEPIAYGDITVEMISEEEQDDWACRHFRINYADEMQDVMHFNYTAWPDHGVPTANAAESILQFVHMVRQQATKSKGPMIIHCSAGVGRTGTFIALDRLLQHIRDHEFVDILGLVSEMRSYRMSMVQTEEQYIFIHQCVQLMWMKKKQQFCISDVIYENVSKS
From the text: FIG. 3H is a schematic showing the design of the cell surface interaction assay.
Experiments shown are representative of two independent assays. […] Scale bar=50 μm.

[2] = target: T2, PTPRD G285E variant extracellular domain (human, UniProt P23468 21-1265); experiment: extracellular interaction screen: pentameric PTPRD variant ECD on ECD-Fc prey (FIG. 5L)
T2 construct: extracellular domain; also called IG3 mutant
T2 sequence (looked up): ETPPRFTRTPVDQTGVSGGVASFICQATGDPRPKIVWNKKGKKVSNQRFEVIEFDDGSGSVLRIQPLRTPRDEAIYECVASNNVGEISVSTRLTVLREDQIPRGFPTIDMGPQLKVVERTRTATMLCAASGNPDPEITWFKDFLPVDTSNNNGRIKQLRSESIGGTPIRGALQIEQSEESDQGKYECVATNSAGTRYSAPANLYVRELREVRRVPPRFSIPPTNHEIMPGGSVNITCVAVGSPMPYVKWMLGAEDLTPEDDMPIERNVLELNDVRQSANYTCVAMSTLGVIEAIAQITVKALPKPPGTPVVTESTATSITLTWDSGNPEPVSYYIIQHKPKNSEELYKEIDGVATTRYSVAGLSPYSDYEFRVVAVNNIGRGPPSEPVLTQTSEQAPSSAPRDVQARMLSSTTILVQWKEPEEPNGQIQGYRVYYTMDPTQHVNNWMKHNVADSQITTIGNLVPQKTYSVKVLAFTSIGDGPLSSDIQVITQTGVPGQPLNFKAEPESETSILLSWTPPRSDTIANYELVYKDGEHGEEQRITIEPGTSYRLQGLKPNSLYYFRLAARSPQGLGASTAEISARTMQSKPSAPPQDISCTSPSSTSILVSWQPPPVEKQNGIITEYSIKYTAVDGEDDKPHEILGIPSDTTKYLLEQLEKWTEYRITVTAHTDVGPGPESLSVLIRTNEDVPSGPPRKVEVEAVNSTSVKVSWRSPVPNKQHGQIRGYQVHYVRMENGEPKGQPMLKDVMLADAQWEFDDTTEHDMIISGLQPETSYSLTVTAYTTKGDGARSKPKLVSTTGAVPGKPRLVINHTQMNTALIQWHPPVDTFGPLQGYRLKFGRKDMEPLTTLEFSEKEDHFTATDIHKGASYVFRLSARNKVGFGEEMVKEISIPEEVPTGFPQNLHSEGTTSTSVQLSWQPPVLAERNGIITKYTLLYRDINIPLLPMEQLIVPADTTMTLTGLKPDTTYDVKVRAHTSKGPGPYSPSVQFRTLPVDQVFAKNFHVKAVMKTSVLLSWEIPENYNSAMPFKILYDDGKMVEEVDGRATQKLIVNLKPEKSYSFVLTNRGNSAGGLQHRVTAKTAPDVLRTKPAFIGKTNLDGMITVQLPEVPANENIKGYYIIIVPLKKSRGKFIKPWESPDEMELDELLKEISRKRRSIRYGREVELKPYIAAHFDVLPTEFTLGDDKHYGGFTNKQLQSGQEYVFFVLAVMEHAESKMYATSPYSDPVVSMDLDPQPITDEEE

B1: LRFN5 extracellular domain (receptor, human, UniProt Q96NI6 18-529, looked up)
chain: QICPKRCVCQILSPNLATLCAKKGLLFVPPNIDRRTVELRLADNFVTNIKRKDFANMTSLVDLTLSRNTISFITPHAFADLRNLRALHLNSNRLTKITNDMFSGLSNLHHLILNNNQLTLISSTAFDDVFALEELDLSYNNLETIPWDAVEKMVSLHTLSLDHNMIDNIPKGTFSHLHKMTRLDVTSNKLQKLPPDPLFQRAQVLATSGIISPSTFALSFGGNPLHCNCELLWLRRLSREDDLETCASPPLLTGRYFWSIPEEEFLCEPPLITRHTHEMRVLEGQRATLRCKARGDPEPAIHWISPEGKLISNATRSLVYDNGTLDILITTVKDTGAFTCIASNPAGEATQIVDLHIIKLPHLLNSTNHIHEPDPGSSDISTSTKSGSNTSSSNGDTKLSQDKIVVAEATSSTALLKFNFQRNIPGIRMFQIQYNGTYDDTLVYRMIPPTSKTFLVNNLAAGTMYDLCVLAIYDDGITSLTATRVVGCIQFTTEQDYVRCHFMQSQFLGGTM
notes: extracellular domain; Streptavidin tetramer in cell assay; ECD-Fc prey in the variant screen; also called LFRN5
- binding result [1]: no binding

B2: LRRC4B extracellular domain (receptor, human, UniProt Q9NT99 36-576, looked up)
chain: AGGGGVAVTSAAGGGSPPATSCPVACSCSNQASRVICTRRDLAEVPASIPVNTRYLNLQENGIQVIRTDTFKHLRHLEILQLSKNLVRKIEVGAFNGLPSLNTLELFDNRLTTVPTQAFEYLSKLRELWLRNNPIESIPSYAFNRVPSLRRLDLGELKRLEYISEAAFEGLVNLRYLNLGMCNLKDIPNLTALVRLEELELSGNRLDLIRPGSFQGLTSLRKLWLMHAQVATIERNAFDDLKSLEELNLSHNNLMSLPHDLFTPLHRLERVHLNHNPWHCNCDVLWLSWWLKETVPSNTTCCARCHAPAGLKGRYIGELDQSHFTCYAPVIVEPPTDLNVTEGMAAELKCRTGTSMTSVNWLTPNGTLMTHGSYRVRISVLHDGTLNFTNVTVQDTGQYTCMVTNSAGNTTASATLNVSAVDPVAAGGTGSGGGGPGGSGGVGGGSGGYTYFTTVTVETLETQPGEEALQPRGTEKEPPGPTTDGVWGGGRPGDAAGPASSSTTAPAPRSSRPTEKAFTVPITDVTENALKDLDDVMKTTK
notes: extracellular domain; ECD-Fc prey; also called NGL-3; netrin-G ligand-3
- binding result [2]: no binding
